According to the Human Domainome abundance scans (Beltran et al. 2025):
± gives the uncertainty stated by the source.

B1: Intersectin-1, residues 1156 to 1213; numbered along this chain, Q15811 (parent)
chain: AVCQVIGMYDYTAQNDDELAFNKGQIINVLNKEDPDWWKGEVNGQVGLFPSNYVKLTT

Variants of: B1
Assay: abundance fitness (aPCA) (normalised: wild type 0, dead -1); higher = more abundant; growth selection in yeast, the domain comes from the species named
Conditions: Homo sapiens

| Variant | abundance fitness |
| --- | --- |
| AVCQVIGMYDYTAQNDDELAFNKGQIINVLNKEAPDWWKGEVNGQVGLFPSNYVKLTT [D34A] | -0.385 ± 0.12 |
| AVCQVIGMYDYTAQNDDELAFNKGQIINVLNKEEPDWWKGEVNGQVGLFPSNYVKLTT [D34E] | -0.376 ± 0.17 |
| AVCQVIGMYDYTAQNDDELAFNKGQIINVLNKENPDWWKGEVNGQVGLFPSNYVKLTT [D34N] | -0.348 ± 0.17 |
| AVCQVIGMYDYTAQNDDELAFNKGQIINVLNKECPDWWKGEVNGQVGLFPSNYVKLTT [D34C] | -0.553 ± 0.14 |
| AVCQVIGMYDYTAQNDDELAFNKGQIINVLNKEGPDWWKGEVNGQVGLFPSNYVKLTT [D34G] | -0.409 ± 0.1 |
| AVCQVIGMYDYTAQNDDELAFNKGQIINVLNKEQPDWWKGEVNGQVGLFPSNYVKLTT [D34Q] | -0.489 ± 0.19 |
| AVCQVIGMYDYTAQNDDELAFNKGQIINVLNKEHPDWWKGEVNGQVGLFPSNYVKLTT [D34H] | -0.158 ± 0.17 |
| AVCQVIGMYDYTAQNDDELAFNKGQIINVLNKEPPDWWKGEVNGQVGLFPSNYVKLTT [D34P] | -0.543 ± 0.24 |
| AVCQVIGMYDYTAQNDDELAFNKGQIINVLNKEYPDWWKGEVNGQVGLFPSNYVKLTT [D34Y] | -0.94 ± 0.29 |
| AVCQVIGMYDYTAQNDDELAFNKGQIINVLNKEDPIWWKGEVNGQVGLFPSNYVKLTT [D36I] | -0.138 ± 0.22 |
| AVCQVIGMYDYTAQNDDELAFNKGQIINVLNKEDPMWWKGEVNGQVGLFPSNYVKLTT [D36M] | -0.018 ± 0.13 |
| AVCQVIGMYDYTAQNDDELAFNKGQIINVLNKEDPFWWKGEVNGQVGLFPSNYVKLTT [D36F] | -0.175 ± 0.14 |
| AVCQVIGMYDYTAQNDDELAFNKGQIINVLNKEDPSWWKGEVNGQVGLFPSNYVKLTT [D36S] | -0.131 ± 0.096 |
| AVCQVIGMYDYTAQNDDELAFNKGQIINVLNKEDPNWWKGEVNGQVGLFPSNYVKLTT [D36N] | -0.203 ± 0.15 |
| AVCQVIGMYDYTAQNDDELAFNKGQIINVLNKEDPPWWKGEVNGQVGLFPSNYVKLTT [D36P] | -0.53 ± 0.14 |
| AVCQVIGMYDYTAQNDDELAFNKGQIINVLNKEDPEWWKGEVNGQVGLFPSNYVKLTT [D36E] | -0.196 ± 0.12 |
| AVCQVIGMYDYTAQNDDELAFNKGQIINVLNKEDPAWWKGEVNGQVGLFPSNYVKLTT [D36A] | -0.004 ± 0.1 |
| AVCQVIGMYDYTAQNDDELAFNKGQIINVLNKEDPVWWKGEVNGQVGLFPSNYVKLTT [D36V] | -0.069 ± 0.099 |
| AVCQVIGMYDYTAQNDDELAFNKGQIINVLNKEDPTWWKGEVNGQVGLFPSNYVKLTT [D36T] | -0.143 ± 0.12 |
| AVCQVIGMYDYTAQNDDELAFNKGQIINVLNKEDPYWWKGEVNGQVGLFPSNYVKLTT [D36Y] | 0.01 ± 0.24 |
| AVCQVIGMYDYTAQNDDELAFNKGQIINVLNKEDPRWWKGEVNGQVGLFPSNYVKLTT [D36R] | -0.009 ± 0.084 |
| AVCQVIGMYDYTAQNDDELAFNKGQIINVLNKEDPQWWKGEVNGQVGLFPSNYVKLTT [D36Q] | -0.218 ± 0.16 |
| AVCQVIGMYDYTAQNDDELAFNKGQIINVLNKEDPCWWKGEVNGQVGLFPSNYVKLTT [D36C] | -0.117 ± 0.14 |

| Variant | abundance fitness |
| --- | --- |
| AVCQVIGMYDYTAQNDDELAFNKGQIINVLNKEDPLWWKGEVNGQVGLFPSNYVKLTT [D36L] | -0.072 ± 0.094 |
| AVCQVIGMYDYTAQNDDELAFNKGQIINVLNKEDPKWWKGEVNGQVGLFPSNYVKLTT [D36K] | 0.071 ± 0.13 |
| AVCQVIGMYDYTAQNDDELAFNKGQIINVLNKEDPHWWKGEVNGQVGLFPSNYVKLTT [D36H] | -0.08 ± 0.15 |
| AVCQVIGMYDYTAQNDDELAFNKGQIINVLNKEDPGWWKGEVNGQVGLFPSNYVKLTT [D36G] | -0.279 ± 0.087 |
| AVCQVIGMYDYTAQNDDELAFNKGQIINVLNKHDPDWWKGEVNGQVGLFPSNYVKLTT [E33H] | -0.373 ± 0.18 |
| AVCQVIGMYDYTAQNDDELAFNKGQIINVLNKSDPDWWKGEVNGQVGLFPSNYVKLTT [E33S] | -0.101 ± 0.11 |
| AVCQVIGMYDYTAQNDDELAFNKGQIINVLNKNDPDWWKGEVNGQVGLFPSNYVKLTT [E33N] | -0.516 ± 0.23 |
| AVCQVIGMYDYTAQNDDELAFNKGQIINVLNKLDPDWWKGEVNGQVGLFPSNYVKLTT [E33L] | -0.497 ± 0.14 |
| AVCQVIGMYDYTAQNDDELAFNKGQIINVLNKADPDWWKGEVNGQVGLFPSNYVKLTT [E33A] | -0.211 ± 0.11 |
| AVCQVIGMYDYTAQNDDELAFNKGQIINVLNKWDPDWWKGEVNGQVGLFPSNYVKLTT [E33W] | -0.987 ± 0.2 |
| AVCQVIGMYDYTAQNDDELAFNKGQIINVLNKPDPDWWKGEVNGQVGLFPSNYVKLTT [E33P] | -0.6 ± 0.23 |
| AVCQVIGMYDYTAQNDDELAFNKGQIINVLNKGDPDWWKGEVNGQVGLFPSNYVKLTT [E33G] | -0.241 ± 0.098 |
| AVCQVIGMYDYTAQNDDELAFNKGQIINVLNKFDPDWWKGEVNGQVGLFPSNYVKLTT [E33F] | -0.61 ± 0.22 |
| AVCQVIGMYDYTAQNDDELAFNKGQIINVLNKRDPDWWKGEVNGQVGLFPSNYVKLTT [E33R] | -0.367 ± 0.11 |
| AVCQVIGMYDYTAQNDDELAFNKGQIINVLNKDDPDWWKGEVNGQVGLFPSNYVKLTT [E33D] | -0.047 ± 0.16 |
| AVCQVIGMYDYTAQNDDELAFNKGQIINVLNKQDPDWWKGEVNGQVGLFPSNYVKLTT [E33Q] | -0.077 ± 0.24 |
| AVCQVIGMYDYTAQNDDELAFNKGQIINVLNKIDPDWWKGEVNGQVGLFPSNYVKLTT [E33I] | -0.451 ± 0.35 |
| AVCQVIGMYDYTAQNDDELAFNKGQIINVLNKVDPDWWKGEVNGQVGLFPSNYVKLTT [E33V] | -0.324 ± 0.14 |
| AVCQVIGMYDYTAQNDDELAFNKGQIINVLNKTDPDWWKGEVNGQVGLFPSNYVKLTT [E33T] | -0.075 ± 0.15 |
| AVCQVIGMYDYTAQNDDELAFNKGQIINVLNKKDPDWWKGEVNGQVGLFPSNYVKLTT [E33K] | -0.236 ± 0.18 |
| AVCQVIGMYDYTAQNDDELAFNKGQIINVLNWEDPDWWKGEVNGQVGLFPSNYVKLTT [K32W] | -0.109 ± 0.13 |
| AVCQVIGMYDYTAQNDDELAFNKGQIINVLNYEDPDWWKGEVNGQVGLFPSNYVKLTT [K32Y] | -0.341 ± 0.21 |
| AVCQVIGMYDYTAQNDDELAFNKGQIINVLNTEDPDWWKGEVNGQVGLFPSNYVKLTT [K32T] | -0.093 ± 0.14 |
